Experimental data: US7842469B2, “Bioluminescence resonance energy transfer (BRET) systems and methods of use thereof” (Stanford University, priority 2005, dated 2010)
Where two headings read alike, the source gives them in different places.

Experiments:
CHO cells = assay: Mammalian expression, transient transfection, light output in CHO cells; type: cell-based, Chinese Hamster; conditions: pcDNA 3.1 CMV plasmid, 24 hours post transfection, coelenterazine
From the text: (§1) Mammalian Expression: In order to construct mammalian expression vectors, bacterial expression vectors containing the desired mutations were used as templates for PCR, with primers designed such that the N-terminal pelB sequence would be replaced by a methionine codon and a C-terminal stop codon would replace the Myc epitope and 6×His tag. The primers also contained appropriate NheI and HindIII restriction sites to allow insertion of the product into the pcDNA 3.1 plasmid (Invitrogen). The resultant plasmids were transiently transfected using SuperFect (Qiagen) into 293T or Chinese Hamster Ovarian (CHO, ATCC# CCL-61) cells growing in 24 well plates following the manufacturer's protocol. Twenty-four hours post transfection, 0.5 μg/well of coelenterazine was added, and the plates were imaged in an IVIS 50 imaging system (Xenogen, Alameda, Calif.).

[1] = cited from earlier work
[2] = RLuc purified directly from Renilla reniformis; cited from earlier work
[3] = Serum stability in mouse serum at 37° C.; type: in vitro ADME; conditions: mouse serum, 37° C., mono-exponential fit
Method in brief: (§2)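 Luciferase diluted into mouse or rat serum at 37° C; aliquots withdrawn over time for activity, half-life from mono-exponential decay fit. Emission spectra recorded at ambient temperature with a grating spectrometer and cooled CCD detector.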

293T cells = assay: Mammalian expression, transient transfection, light output in 293T cells; type: cell-based, human; conditions: pcDNA 3.1 CMV plasmid, 24 hours post transfection, coelenterazine
From the text: as §1

[4] = Luciferase activity of purified RLuc mutants (light output integrated over 10 s, luminometer); type: biochemical
Method in brief: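 Purified RLuc mutant sample, diluted in EB with 1% HSA, added to room-temperature 100 mM sodium phosphate (pH 7), then 1 μl of 0.5 μg/μl coelenterazine or analog mixed in manually. Light read for 10 s starting ~4 s after luciferin addition. Luminometer calibrated to photons/s against luminol standard in DMSO.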

[5] = recombinant RLuc, hamster blood at 37° C.; cited from earlier work
[6] = Serum stability in rat serum at 37° C.; type: in vitro ADME; conditions: mono-exponential fit
Method in brief: as §2

[7] = Kinetics (Michaelis-Menten fit to initial reaction velocity); type: biochemical; conditions: for Km / kcat: coelenterazine 0.038 to 24 μM, formal standard error of fit
Description: Kinetics: Kinetics were assessed by injecting 100 μl of 100 mM sodium phosphate buffer (pH 7) containing coelenterazine onto 1 μl of protein (diluted appropriately in EB containing 1% HSA), and recording the light output for 20 min. The final coelenterazine concentrations tested were 118, 24, 4.7, 0.94, 0.19, and 0.038 μM. The final Luciferase concentrations were in the range of 1-7 pM. Coelenterazine absorbance was corrected for, although this was only significant for the highest concentration (10% attenuation). The values were converted from photons/s to molecules/s using the data from the quantum yield measurements, converted from flux units to mass units via integration, and processed using the kinetic curve fitting program Dynafit.

[8] = Bioluminescence emission spectra; type: physicochemical; conditions: emission spectrum with native coelenterazine
Method in brief: as §2

[9] = Quantum yield measurements; type: biochemical; conditions: for Quantum Yield (%) bc: benzyl-coelenterazine; for Quantum Yield (%) bdc: bisdeoxycoelenterazine; for Quantum Yield (%) cp: coelenterazine-cp; for Quantum Yield (%) n: coelenterazine-n; for Quantum Yield (%) native: native coelenterazine
Description: For quantum yield measurements, separate 1 μl drops of protein (about 2 pm) and substrate (0.2 pm) were placed in a tube, 100 μl of 100 mM sodium phosphate buffer (pH 7) was injected by the luminometer to mix, and the total light output was integrated (generally 5-10 min). For coelenterazine-n, the protein amount was increased 10 fold and the acquisition time lengthened to insure the reaction approached completion.

[10] = system: 293T cells implanted in nude mice; assay: In vivo animal imaging of BRET^2 expression with cooled CCD camera; design: species or system mouse; conditions: 3×10^6 transfected 293T cells s.c. in nude mice, DBC i.v.
Description: In Vivo Animal Imaging of BRET^2 Expression by Using a Cooled CCD Camera: 293T cells transiently transfected with either phRluc or pBRET^2 were harvested 24 hours post-transfection and resuspended in PBS. An aliquot of 3×10^6 cells each was injected s.c. in a set of 3 anesthetized (ketamine:xylazine 4:1) nude mice. One hour after cell injection, 20 μg/mouse of DBC diluted in D-PBS (100 μl total volume) was injected via tail vein (i.v.) and imaged immediately using the CCD camera. For the deep tissue signal detection experiment, 3×10^6 cells each were injected intravenously in another set of anesthetized nude mice, and a scan was performed half an hour later after 100 μg/mouse of DBC injection. For protein-protein interaction experiments, 293T cells were transiently transfected with either pBRET^2, pFKBP12-hRluc alone or co-transfected with pFKBP12-hRluc and pGFP^2-FRB in 1:1 DNA ratio. The cells were harvested 24 hours post-transfection and re-suspended in PBS after counting the cell number. An aliquot of 5×10^6 cells each was injected s.c. in a set of 6 nude mice. Three of these mice were kept aside, while the other 3 mice received single dose of 5 mg/kg rapamycin intra-peritonially (i.p.). After 7 hours, mice were injected intravenously with 25 μg of DBC/mouse and imaged using specified filters. […]

[11] = system: HT1080 fibro-sarcoma cells; assay: BRET vectors with RLuc mutants fused to GFP^2, CCD camera spectral imaging in cells; type: cell-based; conditions: Coelenterazine400a; normalized with CMV-FLuc; P<0.01
Description: Methods: Three different mutations of RLuc, a single mutation C124A, a double mutation C124A/M185V, and a combination of eight mutations called RLuc8, were fused with GFP^2 and tested in HT1080 fibro-sarcoma cells by using CCD camera based spectral imaging. The new vectors were also tested in a small animal tumor model with implanted cells at various tissue depths.
FIG. 7 illustrates a comparative chart showing normalized donor (RLUC) and acceptor (GFP2) signal as measured from 293T cells transiently transfected with the marked plasmid vectors. BRET2 represents GFP2-Rluc, BRET-C represents GFP2-Rluc C124A, BRET-M represents Rluc C124A/M185V, BRET-Rl8 represents GFP2-Rluc8, RL represents Rluc, RL-C represents RLuc C124A, RL-M represents RLuc C124A/M185V, and Rl8 represents Rluc8. CCD camera scans were performed by adding Coelenterazine400a to the well plates. The cells were co-transfected with CMV-FLuc plasmid and scaned at the same time using D-Luciferin substrate for normalization purposes.
FIGS. 8A and 8B illustrate comparative assessments on signal quantification from HT1080 cells stably over-expressing GFP2-Rluc8 (8A) and GFP2-Rluc (8B) plasmid vectors. […] The line represents the calculated BRET ratios at each time point of measurements. […]

Molecule | Light output after transient transfection, CHO (CHO cells) | Serum τ1/2 (h) mouse [3] | Light output after transient transfection, 293T (293T cells) | Serum τ1/2 (h) rat [6] | Km [7] | kcat [7] | Wavelength (nm) mean [8] | Wavelength (nm) peak [8] | Quantum Yield (%) bc [9] | Quantum Yield (%) bdc [9] | Quantum Yield (%) cp [9] | Quantum Yield (%) n [9] | Quantum Yield (%) native [9] | other results
Native RLuc: Luciferase from Renilla reniformis, native enzyme (SEQ ID NO: 1) (protein, Chemically synthesized Renilla Luciferase) MASKVYDPEQRKRMITGPQWWARCKQMNVLDSFINYYDSEKHAENAVIFLHGNAASSYLWRHVVPHIEPVARCIIPDLIGMGKSGKSGNGSYRLLDHYKYLTAWFELLNLPKKIIFVGHDWGACLAFHYSYEHQDKIKAIVHAESVVDVIESWDEWPDIEEDIALIKSEEGEKMVLENNFFVETMLPSKIMRKLEPEEFAAYLEPFKEKGEVRRPTLSWPREIPLVKGGKPDVVQIVRNYNAYLRASDDLPKMFIESDPGFFSNAIVEGAKKFPNTEFVKVKGLHFSQEDAPDEMGKYIKSFVERVLKNEQ | 11.7 ± 1.2 photons × 10^6/s/cm^2/steradian | 0.9 h | 22.5 ± 0.7 photons × 10^6/s/cm^2/steradian | 0.4 h | 2.9 ± 1 µM | 3.9 ± 0.4 s⁻¹ | 497 nm | 482 nm | 3.2 ± 0.04% | (6.1 ± 0.9) × 10^−3% | 4.7 ± 0.03% | 6.1 ± 0.2% | 5.3 ± 0.1% | reported peak light flux ([1]; RLuc purified directly from Renilla reniformis): 6.5×10^22 photons/s/mole enzyme; Km ([1]; in the presence of benzyl-coelenterazine, read-out: previously published Km): 2 µM; reported peak light flux ([1]; recombinant RLuc): 9×10^22 photons/s/mole enzyme; previously published emission peak [2]: 482 nm; Activity (photons/s/mole enzyme) bc ([4]; benzyl-coelenterazine, 10 s integration, absolute units): 5.4 × 10^22 photons/s/mole enzyme; Activity (photons/s/mole enzyme) bdc ([4]; bisdeoxycoelenterazine, 10 s integration, absolute units (overestimation per footnote)): 5.8 × 10^19 photons/s/mole enzyme; Activity (photons/s/mole enzyme) cp ([4]; coelenterazine-cp, 10 s integration, absolute units): 1.7 × 10^22 photons/s/mole enzyme; Activity (photons/s/mole enzyme) n ([4]; coelenterazine-n, 10 s integration, absolute units): 8.3 × 10^21 photons/s/mole enzyme; Activity (photons/s/mole enzyme) native ([4]; native coelenterazine, 10 s integration, absolute units): (3.2 ± 0.3) × 10^22 photons/s/mole enzyme; half-life in hamster blood [5]: 36 min; Peak light flux ([7]; recombinant RLuc, 24 μM coelenterazine): 1.2±0.2×10^23 photons/s/mole enzyme; average radiance on GFP^2 filter, subcutaneous implants [10]: 0.342±0.031×10^3 photons/sec/cm^2/steradian
C124A: RLuc with the C124A mutation (C152A in Liu and Escher), with Myc epitope (protein, Myc epitope tag; Chemically synthesized Renilla Luciferase) MASKVYDPEQRKRMITGPQWWARCKQMNVLDSFINYYDSEKHAENAVIFLHGNAASSYLWRHVVPHIEPVARCIIPDLIGMGKSGKSGNGSYRLLDHYKYLTAWFELLNLPKKIIFVGHDWGAALAFHYSYEHQDKIKAIVHAESVVDVIESWDEWPDIEEDIALIKSEEGEKMVLENNFFVETMLPSKIMRKLEPEEFAAYLEPFKEKGEVRRPTLSWPREIPLVKGGKPDVVQIVRNYNAYLRASDDLPKMFIESDPGFFSNAIVEGAKKFPNTEFVKVKGLHFSQEDAPDEMGKYIKSFVERVLKNEQ | 64.0 ± 4.9 photons × 10^6/s/cm^2/steradian | 7.1 ± 0.4 h | 62.8 ± 12.9 photons × 10^6/s/cm^2/steradian | 6.6 ± 0.5 h | 2.7 ± 0.8 µM | 4.7 ± 0.4 s⁻¹ | 498 nm | 482 nm | 3.6 ± 0.1% | (7.7 ± 0.5) × 10^−3% | 5.2 ± 0.1% | 6.4 ± 0.01% | 5.4 ± 0.3% | increase of normalized luciferase signal in comparison to cells expressing GFP^2-RLUC [11]: No significant improvements; Activity (relative to RLuc) bc ([4]; benzyl-coelenterazine, relative to native enzyme): 0.75; Activity (relative to RLuc) bdc ([4]; bisdeoxycoelenterazine, relative to native enzyme): 0.68; Activity (relative to RLuc) cp ([4]; coelenterazine-cp, relative to native enzyme): 0.79; Activity (relative to RLuc) n ([4]; coelenterazine-n, relative to native enzyme): 0.63; Activity (relative to RLuc) native ([4]; native coelenterazine, relative to native enzyme): 1.2 ± 0.1
